{"source": "paper doi:10.1101/2023.08.15.553389", "binders": {"B1": {"name": "EndoS2 (38-843) D184A/E186L, inactive exchange variant (enzyme)", "chain": "EKTVQTGKTDQQVGAKLVQEIREGKRGPLYAGYFRTWHDRASTGIDGKQQHPENTMAEVPKEVDILFVFHDHTASDSPFWSELKDSYVHKLHQQGTALVQTIGVNELNGRTGLSKDYPDTPEGNKALAAAIVKAFVTDRGVDGLDIAILHEFTNKRTPEEDARALNVFKEIAQLIGKNGSDKSKLLIMDTTLSVENNPIFKGIAEDLDYLLRQYYGSQGGEAEVDTINSDWNQYQNYIDASQFMIGFSFFEESASKGNLWFDVNEYDPNNPEKGKDIEGTRAKKYAEWQPSTGGLKAGIFSYAIDRDGVAHVPSTYKNRTSTNLQRHEVDNISHTDYTVSRKLKTLMTEDKRYDVIDQKDIPDPALREQIIQQVGQYKGDLERYNKTLVLTGDKIQNLKGLEKLSKLQKLELRQLSNVKEITPELLPESMKKDAELVMVGMTGLEKLNLSGLNRQTLDGIDVNSITHLTSFDISHNSLDLSEKSEDRKLLMTLMEQVSNHQKITVKNTAFENQKPKGYYPQTYDTKEGHYDVDNAEHDILTDFVFGTVTKRNTFIGDEEAFAIYKEGAVDGRQYVSKDYTYEAFRKDYKGYKVHLTASNLGETVTSKVTATTDETYLVDVSDGEKVVHHMKLNIGSGAIMMENLAKGAKVIGTSGDFEQAKKIFDGEKSDRFFTWGQTNWIAFDLGEINLAKEWRLFNAETNTEIKTDSSLNVAKGRLQILKDTTIDLEKMDIKNRKEYLSNDENWTDVAQMDDAKAIFNSKLSNVLSRYWRFCVDGGASSYYPQYTELQILGQRLSNDVANTLKD"}}, "molecular_target": "IgG1 Fc L234C/E382A (\"less-crystallisable\" Fc with L234C exchange)", "experiment": "crystal structure"}
{"binder": "B1", "values": [{"measurement": "stoichiometry N (EndoS2 molecules per Fc homodimer)", "value": 2}]}
